B1: Rhizobium etli pyruvate carboxylase R472S (enzyme, UniProt Q2K340 1-1154, looked up)
chain: MPISKILVANRSEIAIRVFRAANELGIKTVAIWAEEDKLALHRFKADESYQVGRGPHLARDLGPIESYLSIDEVIRVAKLSGADAIHPGYGLLSESPEFVDACNKAGIIFIGPKADTMRQLGNKVAARNLAISVGVPVVPATEPLPDDMAEVAKMAAAIGYPVMLKASWGGGGRGMRVIRSEADLAKEVTEAKREAMAAFGKDEVYLEKLVERARHVESQILGDTHGNVVHLFERDCSVQRRNQKVVERAPAPYLSEAQRQELAAYSLKIAGATNYIGAGTVEYLMDADTGKFYFIEVNPRIQVEHTVTEVVTGIDIVKAQIHILDGAAIGTPQSGVPNQEDIRLNGHALQCRVTTEDPEHNFIPDYGRITAYRSASGFGIRLDGGTSYSGAIITRYYDPLLVKVTAWAPNPLEAISRMDRALREFRIRGVATNLTFLEAIIGHPKFRDNSYTTRFIDTTPELFQQVKRQDSATKLLTYLADVTVNGHPEAKDRPKPLENAARPVVPYANGNGVKDGTKQLLDTLGPKKFGEWMRNEKRVLLTDTTMRDGHQSLLATRMRTYDIARIAGTYSHALPNLLSLECWGGATFDVSMRFLTEDPWERLALIREGAPNLLLQMLLRGANGVGYTNYPDNVVKYFVRQAAKGGIDLFRVFDCLNWVENMRVSMDAIAEENKLCEAAICYTGDILNSARPKYDLKYYTNLAVELEKAGAHIIAVKDMAGLLKPAAAKVLFKALREATGLPIHFHTHDTSGIAAATVLAAVEAGVDAVDAAMDALSGNTSQPCLGSIVEALSGSERDPGLDPAWIRRISFYWEAVRNQYAAFESDLKGPASEVYLHEMPGGQFTNLKEQARSLGLETRWHQVAQAYADANQMFGDIVKVTPSSKVVGDMALMMVSQDLTVADVVSPDREVSFPESVVSMLKGDLGQPPSGWPEALQKKALKGEKPYTVRPGSLLKEADLDAERKVIEKKLEREVSDFEFASYLMYPKVFTDFALASDTYGPVSVLPTPAYFYGLADGEELFADIEKGKTLVIVNQAVSATDSQGMVTVFFELNGQPRRIKVPDRAHGATGAAVRRKAEPGNAAHVGAPMPGVISRVFVSSGQAVNAGDVLVSIEAMKMETAIHAEKDGTIAEVLVKAGDQIDAKDLLAVYGG
modifications: covalently attached biotin prosthetic group on the BCCP domain
B2: Rhizobium etli pyruvate carboxylase R472K (enzyme, UniProt Q2K340 1-1154, looked up)
chain: MPISKILVANRSEIAIRVFRAANELGIKTVAIWAEEDKLALHRFKADESYQVGRGPHLARDLGPIESYLSIDEVIRVAKLSGADAIHPGYGLLSESPEFVDACNKAGIIFIGPKADTMRQLGNKVAARNLAISVGVPVVPATEPLPDDMAEVAKMAAAIGYPVMLKASWGGGGRGMRVIRSEADLAKEVTEAKREAMAAFGKDEVYLEKLVERARHVESQILGDTHGNVVHLFERDCSVQRRNQKVVERAPAPYLSEAQRQELAAYSLKIAGATNYIGAGTVEYLMDADTGKFYFIEVNPRIQVEHTVTEVVTGIDIVKAQIHILDGAAIGTPQSGVPNQEDIRLNGHALQCRVTTEDPEHNFIPDYGRITAYRSASGFGIRLDGGTSYSGAIITRYYDPLLVKVTAWAPNPLEAISRMDRALREFRIRGVATNLTFLEAIIGHPKFRDNSYTTRFIDTTPELFQQVKRQDKATKLLTYLADVTVNGHPEAKDRPKPLENAARPVVPYANGNGVKDGTKQLLDTLGPKKFGEWMRNEKRVLLTDTTMRDGHQSLLATRMRTYDIARIAGTYSHALPNLLSLECWGGATFDVSMRFLTEDPWERLALIREGAPNLLLQMLLRGANGVGYTNYPDNVVKYFVRQAAKGGIDLFRVFDCLNWVENMRVSMDAIAEENKLCEAAICYTGDILNSARPKYDLKYYTNLAVELEKAGAHIIAVKDMAGLLKPAAAKVLFKALREATGLPIHFHTHDTSGIAAATVLAAVEAGVDAVDAAMDALSGNTSQPCLGSIVEALSGSERDPGLDPAWIRRISFYWEAVRNQYAAFESDLKGPASEVYLHEMPGGQFTNLKEQARSLGLETRWHQVAQAYADANQMFGDIVKVTPSSKVVGDMALMMVSQDLTVADVVSPDREVSFPESVVSMLKGDLGQPPSGWPEALQKKALKGEKPYTVRPGSLLKEADLDAERKVIEKKLEREVSDFEFASYLMYPKVFTDFALASDTYGPVSVLPTPAYFYGLADGEELFADIEKGKTLVIVNQAVSATDSQGMVTVFFELNGQPRRIKVPDRAHGATGAAVRRKAEPGNAAHVGAPMPGVISRVFVSSGQAVNAGDVLVSIEAMKMETAIHAEKDGTIAEVLVKAGDQIDAKDLLAVYGG
modifications: covalently attached biotin prosthetic group on the BCCP domain
B3: Rhizobium etli pyruvate carboxylase R427K (enzyme, UniProt Q2K340 1-1154, looked up)
chain: MPISKILVANRSEIAIRVFRAANELGIKTVAIWAEEDKLALHRFKADESYQVGRGPHLARDLGPIESYLSIDEVIRVAKLSGADAIHPGYGLLSESPEFVDACNKAGIIFIGPKADTMRQLGNKVAARNLAISVGVPVVPATEPLPDDMAEVAKMAAAIGYPVMLKASWGGGGRGMRVIRSEADLAKEVTEAKREAMAAFGKDEVYLEKLVERARHVESQILGDTHGNVVHLFERDCSVQRRNQKVVERAPAPYLSEAQRQELAAYSLKIAGATNYIGAGTVEYLMDADTGKFYFIEVNPRIQVEHTVTEVVTGIDIVKAQIHILDGAAIGTPQSGVPNQEDIRLNGHALQCRVTTEDPEHNFIPDYGRITAYRSASGFGIRLDGGTSYSGAIITRYYDPLLVKVTAWAPNPLEAISRMDRALREFKIRGVATNLTFLEAIIGHPKFRDNSYTTRFIDTTPELFQQVKRQDRATKLLTYLADVTVNGHPEAKDRPKPLENAARPVVPYANGNGVKDGTKQLLDTLGPKKFGEWMRNEKRVLLTDTTMRDGHQSLLATRMRTYDIARIAGTYSHALPNLLSLECWGGATFDVSMRFLTEDPWERLALIREGAPNLLLQMLLRGANGVGYTNYPDNVVKYFVRQAAKGGIDLFRVFDCLNWVENMRVSMDAIAEENKLCEAAICYTGDILNSARPKYDLKYYTNLAVELEKAGAHIIAVKDMAGLLKPAAAKVLFKALREATGLPIHFHTHDTSGIAAATVLAAVEAGVDAVDAAMDALSGNTSQPCLGSIVEALSGSERDPGLDPAWIRRISFYWEAVRNQYAAFESDLKGPASEVYLHEMPGGQFTNLKEQARSLGLETRWHQVAQAYADANQMFGDIVKVTPSSKVVGDMALMMVSQDLTVADVVSPDREVSFPESVVSMLKGDLGQPPSGWPEALQKKALKGEKPYTVRPGSLLKEADLDAERKVIEKKLEREVSDFEFASYLMYPKVFTDFALASDTYGPVSVLPTPAYFYGLADGEELFADIEKGKTLVIVNQAVSATDSQGMVTVFFELNGQPRRIKVPDRAHGATGAAVRRKAEPGNAAHVGAPMPGVISRVFVSSGQAVNAGDVLVSIEAMKMETAIHAEKDGTIAEVLVKAGDQIDAKDLLAVYGG
modifications: covalently attached biotin prosthetic group on the BCCP domain

Experiments:
AUC [1] = target: the molecule itself; assay: AUC
AUC [2] = target: the molecule itself; assay: AUC; remark: listed apart in the source

Protein | % tetramer (AUC [1]) [%] | stoichiometry N (AUC [2])
B1 | 72 | 4
B2 | – | 4
B3 | 75 | 4

Reference: article PMC3567212 (Biochemistry, 2012)
